Source: the DeepSol protein solubility set

assay: soluble on expression in E. coli; label from the status in PepcDB or PDB records

| Sequence | soluble on expression in E. coli |
| --- | --- |
| MATVHKVGDSTGWTTLVPYDYAKWASSNKFHVGDSLLFNYNNKFHNVLQVDQEQFKSCNSSSPAASYTSGADSIPLKRPGTFYFLCGIPGHCQLGQKVEIKVDPGSSSA | soluble |
| MSLFRLVFVMDIFNRNVVLAKGGIRENYRPVSDSSAVCRTSDPLEILEILRPKEVYIADLNVLQGKGPLDMNAEIIREVSFKADTMLDSGVSSSKDVDRALSIAGTAVIGTETGTLEVIKDSISRNPGRISVSIDIKHGKLLKQDPKIPEDPFEIVKILNRLPLKDLIFLDLDRVGTASGFDPEFLRKLAESSAHDVLLAGGVRGMKDLFALDSLGIKGALVATAIHSGEVSPEVMTLGLKKEGHHHHHH | soluble |
| MSLLPKELLDVRRAKGRIFPKFADERDYELAEKVIEIFKKGLGKKYGNLMKQARKLENAKNFKKVRGFIRVLENHCIEKSCAFDVDSELEPRKVRMLLFEHGFVTSKKERDRVLEYVARYFSTTPETVERAMYADREEELILTKFRPLTPDNLIKLYNLSLLQTTLFNALRLTFWASDRHKEIFRSIKRLGLMYELYEDSGRLMVEVTGAATLLKMTRKYGVSFAKLIPWILRAKNWFIRAEISDFDRLYIMEIDDRIRDLFPDVEERLSYDSTLEEEFARKMQMLGYEVEREPDVVKAGKYAFIPDFAVNLGDKKVYIEIAGFWTDEYLRKKAEKIKSSSIPLILIAREDFGDGGANVKDVILFSRKIPYGEVIKALKRYKPEKKVEGDVVELENFAEVPSEYVIAGKYAVRREIFEEIKREIEVSNPSTLEDIKAILKKYGLGESAIRAFGYRVRWIGLGEAVIERTDEGHHHHHH | not soluble |
| MGLDKGKQQTAKKPGFNCKPFEFEISSTKFQIPNDKPLKYTLKCTADEKQDVIIQVHSVFFEIVGARRKHGVTSQEFHVLGKNEEMTFEIGLKDLTNVSYDNFEHAQLASAAGFITFTHYKSSRDDDSDASWGPNKNLLIVITDGMEEVGFWKKKLSVETETDEMKKVKEEFGVKLEGEKKYEEIDKMEMDRMRKEIGKNQSARDDGFAPIKDMHKKYLKEKYECVIS | soluble |
| MGSDKIHHHHHHMKVLELKNVSVRYKTGEKTVNAVENVSFHLEKGETLGLVGESGCGKSTLGFSIMRLLPKGTKIDGSIKIEGIDISSLSDEEMRQIRGSKVAMIFQDPMTSLNPILRIEDHFVEMILTHRPELSKEDARELAAKALEDVGINRNRLKDYPFQFSGGMRQRVMIALSIVLNPAVLIADEPTTSLDVIVQAQIMELLEKLTKEHRTAMILITHDMGLVAEAADRIGVMYAGHLVELASKERIFTNPLHPYTVGLLRSIPNTDVNDKELRYIPGSPPDLSNPPEGCRFAPRCEKAMKICWEKEPPEFEIDGTRVKCWLYGGDQNGTD | not soluble |
| MLVEFDNPPLCMKSNKDGSRLVVGFVDGSIRFYDTQQHEEEFQEIWKFQTKSSIRGVDLDEHKKRVYAVTKNRSLCVFDIDTGKRVRCILKCHRSVPTAICTLPPTALKSQQLATADESGEVKTWNLDPEVASENANIRKWQEQDEDINDLKVDVKSNLLATSSDGTLGAYDLRKAKLKMRSELMHSELYSVCGTNRSVYVGGEDGYVEVFNLNEYGNLLERVESGFEMGVNGIVELRSGLLGLTSQGSNRMRLLNVQPSKRLGYAGYHGDEKSDDDGIDAITISTDKSTVFTMISMSCTIKKWDMGPIIDEIPILRAQDAKSKKMRKTEGFFDGLVGPKNDSDSDDDDEPKSKKRRNDEDSDEEIDEEEQEEDDEEEEEDSD | not soluble |
| DPTQSVRAYYIQNGDSTKTVIIGQGWTEHVDWIGYVSKIWYDMGYNVLMPSQRGQFLSDGDNLTFGYQDKYDWLNWVKMVDERNGADSQVVFYGQSLGADTVLEAASVPGLSKSVKAVVSDAGYATLPELGSSLYNKAITAVSNALQSIGLPAITSLPFLSYDKIVAAMNARLIKEQGFSVDDLSATDAASKITIPLLLIHTQDDAFIPYTQSLELAAANHSANQEVWILPGTVGGHAAANNAILQYRQHLLAFLTPLLSVADAED | not soluble |
| PVMADTIKLRIVETTDIHTNLMDYDYYKDKASDQIGLTRAATLVKQARAEVENSVLVDNGDLIQGSPMGDYMAAKGIKAGEVHPVYKAMNPLGYDVGNIGNHEFNYGLEFLKETINDAAFPYINANVFDAKTGQHLFTPYVIKEHSFKDTDGEAHTIKVGYIGFVPPQIMVWDKKNLEGKVTAADIKQTAEKLIPEMKAKGADVIVAIPHSGISTDEYQAGAENSVYYLTQVKGIDAIAFGHSHAVFPGKDFANVPGADIDKGTINGVTAVMPGRWGSHVGVMDLTLEKQQGRWAVTSGQSEARPIFDKANKKALVEADATMVQALQHDHQGTRDFVNQ | not soluble |
| MSDHQDGMKLEDIERQFLDVAQREGGLEAIQPTTGPLENEENLKSSTGGGGGEDDNDRKKRKRSRSRDRDTRRRSRSRDRGERRGGGGGGDRDRSRSRERRRGGGGRDEPRRRGGDDEARSRREPEPQKPREPKKYRFWDVPPTGFETTTPMEYKNMQAAGQVPRGSVQSAVPVVGPSVTCQSRRLYVGNIPFGCNEEAMLDFFNQQMHLCGLAQAPGNPILLCQINLDKNFAFIEFRSIDETTAGMAFDGINFMGQQLKVRRPRDYQPSQNTFDMNSRMPVSTIVVDSANKIFIGGLPNYLTEDQVKELLCSFGPLKAFSLNVDSQGNSKGYAFAEYLDPTLTDQAIAGLNGMQLGDKQLVVQLACANQQRHNTNLPNSASAIAGIDLSQGAGRATEILCLMNMVTEDELKADDEYEEILEDVRDECSKYGIVRSLEIPRPYEDHPVPGVGKVFVEFASTSDCQRAQAALTGRKFANRTVVTSYYDVDKYHNRQF | soluble |
| MSLERIDIASVKGGVGKSFIAYFLSKTLAASHKILLIDKDLTSTLSRVYNIKGNLLSYLTVGQSSLAYFKEVDSGLTVVNVGCSRKIKNVEPKKIADIYSGFSDHDLMIVDNPSIPSDVCLDTELQAYYTYLNEKRLDYNLILILPPNQLLLDESLAFMQLFKDYIKNELSISLGNDLVNFDVISSVINMYNPRERIDISKIKDLTSKIVKIPFKKEAIYTPFNQLNTPMEISELAKYVLEYLESREGHHHHHH | soluble |
| MEITDVRLRRVETDGRMKAISSITIDGEFVIHDIRVIDGNEGLFVAMPSKRTPDGEFRDIAHPINSGTRAKIQEAVLAAYEVADEPAVNEESSADESVVEEN | not soluble |
| KQNSLMGITGGLTARYISEKYFAMICGAQVELNISQRGWDELFEVPGENGEPVEDPTRKYTRKMTYLDIPFLAHLAFGNEKGLQFFINAGPQIGLLIGESESMENIDMNALTDTQKAVYGDKIQNKFDYGIAGGGGIEFRTKKAGSFLLEGRYYFALSDFYSTTKKDYFSRAAHGTITVKLTYLFDLK | not soluble |
| MGSDKIHHHHHHMIRSLWIAKTGLNAQQTNMDVISNNLANVSTNGFKRQRAVFEDLMYQTIRQPGAQSSEQTMLPSGLQLGTGVRPVSTERIHTQGTFSETGNSKDVAIKGQGFFQVQLPDGTTAYTRDGAFQLDGNGQLVTSSGYQVQPAITVPANATELNIGRDGIVSVKVQGQAATNQIGQLTLTTFINDSGLESMGENLYLETASSGAPNETNPGLNGAGLLYQKYVETSNVNVAEELVSMIQTQRAYEINSKAISSSDQMLQKLTQL | not soluble |
| TDPDFLIRLATNLKEEKSKRLEAEQKIEAQRPKVLFADAVSDTEGTILIRDLAKLIQQNGVDIGEKRLFEWLRQNGYLISRRGTDYNRPTQKSMELGLFKIKETAIMRSSGAHTAITAKVTGKGQLYFVNKFLEQSLV | not soluble |
| ANNGAHRDMDLNTFIASAEAIAPYLHSFVSAGWESAGNPAAQLLSALRPIGIEAEQAMFAATQGVNTHKGMIFILGLICGSVGWLKANQLKIDAQHIGETIRQACQFLVIDELKAKRDCEPETAGERIYRQYGLTGARGEAASGLAMVMQHALPAYQACLTKGASTEQALWHTLLVLMANNNDSNLVSRGGLAGLHFVQEQAQQLLAKGGFLYQEIEQALTALDSVLIEKHLS | not soluble |
| MKHQHQHQHQHQHQQPLQEEEQAHATSLPPRASSPPQILPQLSPEQLGMIEKLVAAQQQCNRRSFSDRLRVTPWPMAPDPHSREARQQRFAHFTELAIVSVQEIVDFAKQLPGFLQLSREDQIALLKTSAIEVMLLETSRRYNPGSESITFLKDFSYNREDFAKAGLQVEFINPIFEFSRAMNELQLNDAEFALLIAISIFSADRPNVQDQLQVERLQHTYVEALHAYVSIHHPHDRLMFPRMLMKLVSLRTLSSVHSEQVFALRLQDKKLPPLLSEIWDVHE | soluble |
| KAGSAAAPFTKPFAVYKNVKFYLGDISHLVNCVSFDFVVNAANENLLHGGGVARAIDILTEGQLQSLSKDYISSNGPLKVGAGVMLECEKFNVFNVVGPRTGKHEHSLLVEAYNSILFENGIPLMPLLSCGIFGVRIENSLKALFSCDINKPLQVFVYSSNEEQAVLKFLDGLD | soluble |
| NWLTADGAAGPSGEGGFAAEKDRYHLYVSLACPWAHRTLIMRKLKGLEPFLPVSVVNPLMLENGWTFDDSFPEATGDTLYQHDFLYQLYLHADPHYTGRVTVPVLWDKKQQTIVSNESAEIIRMFNTAFDGLGARAGDYYPPALREQIDELNGWIYDNVNN | not soluble |
| MGSDKIHHHHHHGGCVRDVIDDVPGTDEDYAADKKDVVLIRMGTNDAEVKDITSRLFNNIPSSWEIGKKTIVDYDKMKDPETELNADIKNPKIYMTVILNIDDVISGKYPISLFRMLKFYKRDFYVIATQSTPEQKEEMLSLIGVYMEAGYYAINYDNVQHYRIFPSADPYAKDNMIGKGVASFNQKLLTRSADTLPEGNDPDPGYNAQMADKEALKRIEIYNRIYGYAQGDMNYSMQAVPYKMKPGAAPDVIIDNSWAIDAYNFQIYSKNNNCILSITNNAGNGFTANIKDYTTPKGANVYAYIWNLMREASSEITVHSDGGIFREISYQPQTVNHGASYTENSFWKVSVSVSPTKLEDKPWEAFKVSFGKESSTEVSYKTKSMDYSCKGQFGNGLYSKLWQFIPGEFYDRAEAFVYETSQGLRWIDAAQAMTPNYVTWGGWTLRQNYLNHINNSMKLHQQQCIYSLESDAQPGVVSVAITDAIDLQKTYVHYNCGIRYGHDSARTDLKMSKMVWIDFRQWDN | not soluble |
| MVLLHHQPLGSHHATTSGGSLLERADLSHPIPENARKLAQLVEYDESRVELGTHSVFVREARPPGAHYSKATVIFLHGQSFSSSTWTENNLLRTFAALGYRAIAIDLPGSGQTRGAAIPQAEKPNFLMDFIETLGLKQVMIVCASMAAQYVLPLMTSTRHLSCVVLVAPSNTHEVVSPSSYTVPTLVVWGERDTSLGPTAAANLKNLPQVKLQKIPDAGHACYLHNPKCFENLCVNFFDLIRSYHH | not soluble |
| MSLLFIFVVQSFAALSVEELTWDNGDTLLKFLQRNSIPMSLYYGLDREDQELASDIAYKIKYQVLKDENNNIEQVLIPISDDLQIHIYKDKDGQYTLAFTPVSYQKEDRILHLTIKSSAYQDVYEESGSSTLARAMVRAFRGSINFRNIQKGDEVTLYYEQKRRMGKLWGDINIKMAMVEINKSAREVFSYNDIFYDRDGKELESFLLTKPVNYTRISSPFTTARYHPILKRYRAHLGIDYAAPTGTPVKSAGKGVVTFIGTKGGYGNVIQIKHDSGYMTLYAHLSRFAKIKNGQKVNQGQVIAYVGSTGMSTGPHLHFGVYLNNKAINPASVVKIAKSELSGKAKENFKHIIAGYEQVVKEALASNQPNPPKEEDFENYIEGHHHHHH | soluble |
| MSIAVGMIETLGFPAVVEAADSMVKAARVTLVGYEKIGSGRVTVIVRGDVSEVQASVTAGIENIRRVNGGEVLSNHIIARPHENLEYVLPIRYTEAVEQFREIVNPSIIRRAAALEHHHHHH | soluble |
